Literature values, collected in article PMC4484741.
Where two headings read alike, the source gives them in different places.

Experiments:
GLP-1 receptor [1] = biological target: GLP-1 receptor (UniProt P43220)
GLP-1 receptor [2] = biological target: GLP-1 receptor (UniProt P43220); remark: listed apart in the source

Sequence of GLP-1 receptor (P43220 24-463): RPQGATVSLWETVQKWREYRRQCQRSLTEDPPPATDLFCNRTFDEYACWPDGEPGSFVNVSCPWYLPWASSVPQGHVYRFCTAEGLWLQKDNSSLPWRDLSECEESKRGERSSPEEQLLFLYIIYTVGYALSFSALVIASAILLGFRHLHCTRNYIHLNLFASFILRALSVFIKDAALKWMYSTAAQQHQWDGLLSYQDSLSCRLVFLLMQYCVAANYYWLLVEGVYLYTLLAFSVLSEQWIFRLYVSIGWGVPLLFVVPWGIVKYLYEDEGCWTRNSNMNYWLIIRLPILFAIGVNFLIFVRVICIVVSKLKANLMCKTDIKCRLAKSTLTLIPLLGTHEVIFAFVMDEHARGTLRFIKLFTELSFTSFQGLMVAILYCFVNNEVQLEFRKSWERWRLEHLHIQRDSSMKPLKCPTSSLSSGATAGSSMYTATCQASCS
Sequence of Exendin (9-39) 9-39 (P26349 56-86): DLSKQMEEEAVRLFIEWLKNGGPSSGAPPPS
Sequence of Exendin-4 (P26349 48-86): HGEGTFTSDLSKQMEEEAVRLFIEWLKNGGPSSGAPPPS

## Exendin (9-39) 9-39 (from UniProt P26349)
GLP-1 receptor [1]
  Kd: 3 nM

## Exendin-4 (from UniProt P26349)
GLP-1 receptor [2]
  Kd: 0.14 nM
